Starred links: 1 amine or outer side, 2 acyl side, 3 side chain; linkers in the order of their positions; H or OH if unused. Non-standard residues stand in square brackets, D forms with d. No end group written: not given here. *: point of attachment. 4‑nitrohippuryl = O=C(NCC(=O)*)c1ccc([N+](=O)[O-])cc1; Benzoyl(4-(pyrrol-1-yl)) = O=C(c1ccc(-n2cccc2)cc1)*; 10‑hydroxydecanoyl = O=C(CCCCCCCCCO)*; 2,3‑dihydroxybenzyl = Oc1cccc(C*)c1O; Cysteamide = C(CS[*:3])N[*:1]; Dap = NC[C@H](N)C(=O)O
Assays:
[1] = target: T1, protein kinase Cα (UniProt P17252 1-672, limits assumed); test: PKCα 33P kinase assay, Ki obtained by varying the concentration of peptide substrate Ac-Ser-Phe-Arg-Arg-Arg-NH2
T1 construct: also called PKCα; PKC α
Protocol: Subsequent assay workup and scintillation counting were performed as described under "Protein Kinase C α, β and γ Assay (library screening)".
The reaction was initiated as described above. […] Following an additional 5 min incubation at ambient temperature, 75 µL from each reaction well was transferred into each well of a Unifilter (P81 cellulose phosphate paper) assay plate and washed four times with 0.1% phosphoric acid in water. […] IC$50$ values were calculated using GraFit (Erithacus Software Limited) and K_i values were calculated using Enzyme Kinetics, SigmaPlot (SPSS Inc.)

[2] = target: T1, protein kinase Cα; test: cell-based or functional assay
[3] = target: T2, protein kinase C ζ (UniProt Q05513 1-592, limits assumed); test: cell-based or functional assay
T2 sequence (looked up): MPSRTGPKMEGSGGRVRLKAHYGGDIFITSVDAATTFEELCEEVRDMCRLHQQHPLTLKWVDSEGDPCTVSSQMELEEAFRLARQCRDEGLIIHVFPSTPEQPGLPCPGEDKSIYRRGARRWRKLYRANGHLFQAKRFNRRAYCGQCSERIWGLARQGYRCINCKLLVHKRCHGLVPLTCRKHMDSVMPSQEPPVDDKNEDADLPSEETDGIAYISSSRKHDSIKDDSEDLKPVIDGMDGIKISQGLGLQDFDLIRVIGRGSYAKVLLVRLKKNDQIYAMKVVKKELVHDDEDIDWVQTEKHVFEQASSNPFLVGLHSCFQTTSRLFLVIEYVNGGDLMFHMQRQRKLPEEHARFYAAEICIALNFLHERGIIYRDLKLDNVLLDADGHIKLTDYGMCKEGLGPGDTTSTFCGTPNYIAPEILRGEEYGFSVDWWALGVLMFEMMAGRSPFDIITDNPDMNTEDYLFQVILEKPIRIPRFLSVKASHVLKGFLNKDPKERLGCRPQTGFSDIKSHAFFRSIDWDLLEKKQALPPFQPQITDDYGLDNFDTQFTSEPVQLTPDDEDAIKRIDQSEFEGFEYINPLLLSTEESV

[4] = target: T3, protein kinase C θ (UniProt Q04759 1-706, limits assumed); test: cell-based or functional assay
[5] = target: T4, protein kinase C γ (UniProt P05129 1-697, limits assumed); test: cell-based or functional assay
[6] = target: T1, protein kinase Cα; test: cell-based or functional assay; remark: listed apart in the source
[7] = target: T5, protein kinase C τ (atypical; ι in the tables) (UniProt P41743 1-596); test: cell-based or functional assay
T5 sequence (looked up): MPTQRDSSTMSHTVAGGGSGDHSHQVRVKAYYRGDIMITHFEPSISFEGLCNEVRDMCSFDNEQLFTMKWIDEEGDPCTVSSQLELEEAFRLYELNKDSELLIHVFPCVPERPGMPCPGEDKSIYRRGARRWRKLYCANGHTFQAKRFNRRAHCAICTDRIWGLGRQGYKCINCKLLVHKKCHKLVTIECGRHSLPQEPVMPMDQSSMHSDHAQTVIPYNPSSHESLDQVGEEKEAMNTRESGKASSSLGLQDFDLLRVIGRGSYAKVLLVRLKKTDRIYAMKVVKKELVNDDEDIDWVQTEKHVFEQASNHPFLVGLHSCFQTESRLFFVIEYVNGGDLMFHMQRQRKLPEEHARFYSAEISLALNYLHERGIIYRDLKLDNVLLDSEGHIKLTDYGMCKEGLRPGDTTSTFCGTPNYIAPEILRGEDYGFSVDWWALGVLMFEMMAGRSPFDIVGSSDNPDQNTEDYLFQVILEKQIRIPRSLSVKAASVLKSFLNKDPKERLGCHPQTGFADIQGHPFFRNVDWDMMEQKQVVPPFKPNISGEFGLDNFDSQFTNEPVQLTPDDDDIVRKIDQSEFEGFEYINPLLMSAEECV

[8] = target: T6, protein kinase C ε (UniProt Q02156 1-737, limits assumed); test: cell-based or functional assay
T6 sequence (looked up): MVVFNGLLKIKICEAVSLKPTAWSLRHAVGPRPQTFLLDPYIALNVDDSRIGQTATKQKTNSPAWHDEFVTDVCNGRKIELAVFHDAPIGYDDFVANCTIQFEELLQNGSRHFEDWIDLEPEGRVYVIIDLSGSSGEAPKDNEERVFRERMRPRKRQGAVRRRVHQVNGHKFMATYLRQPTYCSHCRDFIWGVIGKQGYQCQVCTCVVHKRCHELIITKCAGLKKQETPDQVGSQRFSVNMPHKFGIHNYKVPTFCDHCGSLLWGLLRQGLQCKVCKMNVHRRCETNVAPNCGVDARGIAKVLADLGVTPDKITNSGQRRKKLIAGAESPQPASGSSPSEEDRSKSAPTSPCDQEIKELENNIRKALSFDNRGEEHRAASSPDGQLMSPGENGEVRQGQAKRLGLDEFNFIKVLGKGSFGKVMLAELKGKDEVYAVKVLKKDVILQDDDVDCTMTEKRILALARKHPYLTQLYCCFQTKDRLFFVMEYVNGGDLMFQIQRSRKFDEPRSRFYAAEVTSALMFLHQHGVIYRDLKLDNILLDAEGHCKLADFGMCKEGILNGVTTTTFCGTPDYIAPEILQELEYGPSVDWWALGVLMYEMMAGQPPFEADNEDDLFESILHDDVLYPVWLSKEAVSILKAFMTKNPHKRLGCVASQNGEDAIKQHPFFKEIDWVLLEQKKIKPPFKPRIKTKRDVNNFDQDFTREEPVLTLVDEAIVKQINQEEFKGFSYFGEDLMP

[9] = target: T7, protein kinase C βI (UniProt P05771-1 1-671, limits assumed); test: cell-based or functional assay
[10] = target: T2, protein kinase C ζ; test: cell-based or functional assay; remark: listed apart in the source
[11] = target: T8, protein kinase C η (UniProt P24723 1-683, limits assumed); test: cell-based or functional assay
[12] = target: T3, protein kinase C θ; test: cell-based or functional assay; remark: listed apart in the source
[13] = target: T4, protein kinase C γ; test: cell-based or functional assay; remark: listed apart in the source
[14] = target: T1, protein kinase Cα; test: cell-based or functional assay; remark: listed apart in the source
[15] = target: T6, protein kinase C ε; test: cell-based or functional assay; remark: listed apart in the source
[16] = target: T7, protein kinase C βI; test: cell-based or functional assay; remark: listed apart in the source
[17] = target: T2, protein kinase C ζ; test: cell-based or functional assay; remark: listed apart in the source
[18] = target: T8, protein kinase C η; test: cell-based or functional assay; remark: listed apart in the source
[19] = target: T5, protein kinase C τ (atypical; printed ι …); test: cell-based or functional assay; remark: listed apart in the source
[20] = target: T3, protein kinase C θ; test: cell-based or functional assay; remark: listed apart in the source
[21] = target: T4, protein kinase C γ; test: cell-based or functional assay; remark: listed apart in the source
[22] = target: T1, protein kinase Cα; test: cell-based or functional assay; remark: listed apart in the source
[23] = target: T5, protein kinase C τ (atypical; printed ι …); test: cell-based or functional assay; remark: listed apart in the source
[24] = target: T6, protein kinase C ε; test: cell-based or functional assay; remark: listed apart in the source
[25] = target: T7, protein kinase C βI; test: cell-based or functional assay; remark: listed apart in the source
[26] = target: T8, protein kinase C η; test: cell-based or functional assay; remark: listed apart in the source

T7 sequence (P05771 whole entry): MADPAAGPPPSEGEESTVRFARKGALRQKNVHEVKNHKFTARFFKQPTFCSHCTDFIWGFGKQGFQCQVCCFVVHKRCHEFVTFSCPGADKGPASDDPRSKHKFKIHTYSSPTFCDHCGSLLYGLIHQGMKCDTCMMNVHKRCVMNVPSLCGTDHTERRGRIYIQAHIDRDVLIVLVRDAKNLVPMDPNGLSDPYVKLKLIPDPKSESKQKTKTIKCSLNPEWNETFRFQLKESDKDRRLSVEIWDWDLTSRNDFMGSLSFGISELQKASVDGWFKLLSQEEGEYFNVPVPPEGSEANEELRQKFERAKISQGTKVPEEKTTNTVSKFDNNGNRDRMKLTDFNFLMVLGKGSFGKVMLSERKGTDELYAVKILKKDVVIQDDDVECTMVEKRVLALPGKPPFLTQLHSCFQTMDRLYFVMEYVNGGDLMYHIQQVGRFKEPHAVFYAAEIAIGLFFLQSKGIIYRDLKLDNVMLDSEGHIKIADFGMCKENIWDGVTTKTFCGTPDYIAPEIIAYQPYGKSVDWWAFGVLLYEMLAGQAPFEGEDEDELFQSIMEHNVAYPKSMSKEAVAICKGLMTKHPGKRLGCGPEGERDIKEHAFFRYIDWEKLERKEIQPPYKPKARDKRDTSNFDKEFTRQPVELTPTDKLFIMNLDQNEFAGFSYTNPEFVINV
T8 sequence (P24723 whole entry): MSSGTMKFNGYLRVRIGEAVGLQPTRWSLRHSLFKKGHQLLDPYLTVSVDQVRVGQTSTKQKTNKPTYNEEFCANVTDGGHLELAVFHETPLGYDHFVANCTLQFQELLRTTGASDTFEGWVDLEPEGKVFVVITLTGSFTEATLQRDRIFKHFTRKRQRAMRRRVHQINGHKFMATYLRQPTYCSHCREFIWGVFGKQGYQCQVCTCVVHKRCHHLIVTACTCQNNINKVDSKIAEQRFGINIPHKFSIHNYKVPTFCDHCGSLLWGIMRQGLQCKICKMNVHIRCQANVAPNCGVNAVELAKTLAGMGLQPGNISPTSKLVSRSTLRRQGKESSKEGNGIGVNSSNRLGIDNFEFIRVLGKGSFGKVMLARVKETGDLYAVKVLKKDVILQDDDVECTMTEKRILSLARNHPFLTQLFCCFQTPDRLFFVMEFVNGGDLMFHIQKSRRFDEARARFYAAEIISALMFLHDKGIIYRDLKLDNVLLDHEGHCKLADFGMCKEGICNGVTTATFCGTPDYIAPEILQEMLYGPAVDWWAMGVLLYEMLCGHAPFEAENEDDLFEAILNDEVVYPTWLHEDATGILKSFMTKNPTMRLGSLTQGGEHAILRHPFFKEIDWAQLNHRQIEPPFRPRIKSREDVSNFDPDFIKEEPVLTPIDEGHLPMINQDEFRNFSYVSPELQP
T3 sequence (Q04759 whole entry): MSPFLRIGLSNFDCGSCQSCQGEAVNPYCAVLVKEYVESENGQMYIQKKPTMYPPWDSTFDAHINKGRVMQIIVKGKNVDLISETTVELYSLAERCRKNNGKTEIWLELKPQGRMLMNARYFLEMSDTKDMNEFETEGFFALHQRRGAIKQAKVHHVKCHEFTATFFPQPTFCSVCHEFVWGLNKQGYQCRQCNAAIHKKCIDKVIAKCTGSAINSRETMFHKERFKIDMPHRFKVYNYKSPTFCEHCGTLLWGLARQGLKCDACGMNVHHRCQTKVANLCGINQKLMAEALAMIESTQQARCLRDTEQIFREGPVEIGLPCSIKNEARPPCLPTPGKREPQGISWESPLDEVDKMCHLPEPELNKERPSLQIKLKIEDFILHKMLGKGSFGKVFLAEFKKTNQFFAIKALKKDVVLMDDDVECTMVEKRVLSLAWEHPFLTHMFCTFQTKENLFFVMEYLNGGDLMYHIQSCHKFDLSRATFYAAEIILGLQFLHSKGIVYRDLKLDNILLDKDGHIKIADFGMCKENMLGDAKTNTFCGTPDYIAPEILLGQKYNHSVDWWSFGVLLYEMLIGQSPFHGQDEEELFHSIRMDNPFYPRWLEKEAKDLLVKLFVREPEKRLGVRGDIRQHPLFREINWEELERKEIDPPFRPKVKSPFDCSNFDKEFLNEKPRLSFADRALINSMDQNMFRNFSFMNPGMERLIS

B1: compound 4 (diacetylated control peptide) (peptide)
peptide: Ac-ARRGALR[Dap](Ac)A-NH2
notes: also called peptide 4; starting parent peptide 4
Ki [1]: 350 µM | IC50, PKCα-catalysed phosphorylation of peptide substrate (33P assay) [2]: 1100 µM

Ac-RRQG[Dap](Ac)FMYF-Cysteamide [Compound A (diacetylated consensus derivative)]
IC50, PKC kinase assay [3]: 80 µM

Ac-ARRGALR[Dap](Benzoyl(4-(pyrrol-1-yl)))A-Cysteamide (also called peptide 3) [compound 3 (lead from library III)]
Ki [1]: 0.55 µM | IC50, PKCα-catalysed phosphorylation of peptide substrate (33P assay) [2]: 4.7 µM

{2,3‑dihydroxybenzyl}-RRQG[Dap](4‑nitrohippuryl)FMYF-Cysteamide [Compound F]
Fold selectivity (IC50), PKC δ = 1 [4]: 761 fold | Fold selectivity (IC50), PKC δ = 1 [5]: 500 fold | Fold selectivity (IC50), PKC δ = 1 [6]: 944 fold | Fold selectivity (IC50), PKC δ = 1 [7]: 26 fold | Fold selectivity (IC50), PKC δ = 1 [8]: 489 fold | Fold selectivity (IC50), PKC δ = 1 [9]: 172 fold | Fold selectivity (IC50), PKC δ = 1 [10]: 200 fold | Fold selectivity (IC50), PKC δ = 1 [11]: 683 fold | IC50, PKC kinase assay (33P, peptide substrate) [12]: 13.7 µM | IC50, PKC kinase assay (33P, peptide substrate) [13]: 9 µM | IC50, PKC kinase assay (33P, peptide substrate) [14]: 17 µM | IC50, PKC kinase assay (33P, peptide substrate) [15]: 8.8 µM | IC50, PKC kinase assay (33P, peptide substrate) [16]: 3.1 µM | IC50, PKC kinase assay (33P, peptide substrate) [17]: 3.6 µM | IC50, PKC kinase assay (33P, peptide substrate) [18]: 12.3 µM

B2: Compound C (peptide)
peptide: Ac-RRQG[Dap](4‑nitrohippuryl)FMYF-Cysteamide
SMILES: CSCC[C@H](NC(=O)[C@H](Cc1ccccc1)NC(=O)[C@H](CNC(=O)CNC(=O)c1ccc([N+](=O)[O-])cc1)NC(=O)CNC(=O)[C@H](CCC(N)=O)NC(=O)[C@H](CCCNC(=N)N)NC(=O)[C@H](CCCNC(=N)N)NC(C)=O)C(=O)N[C@@H](Cc1ccc(O)cc1)C(=O)N[C@@H](Cc1ccccc1)C(=O)NCCS
IC50, PKC ζ kinase assay [3]: 6.4 µM

H-RRQG[Dap]FMYF-Cysteamide (not fully specified (residue 5)) [Compound E (nonacylated free amine)]
IC50, PKC kinase assay (33P, peptide substrate) [12]: 14.2 µM | Selectivity (IC50 relative to PKC βI = 1) [12]: 1780 fold | IC50, PKC kinase assay (33P, peptide substrate) [13]: 4.4 µM | Selectivity (IC50 relative to PKC βI = 1) [13]: 550 fold | IC50, PKC kinase assay (33P, peptide substrate) [14]: 3.1 µM | Selectivity (IC50 relative to PKC βI = 1) [14]: 387 fold | Selectivity (IC50 relative to PKC βI = 1) [19]: 94 fold | IC50, PKC kinase assay (33P, peptide substrate) [15]: 2.3 µM | Selectivity (IC50 relative to PKC βI = 1) [15]: 287 fold | IC50, PKC kinase assay (33P, peptide substrate) [16]: 0.008 µM | Selectivity (IC50 relative to PKC βI = 1) [16]: 1 fold | IC50, PKC kinase assay (33P, peptide substrate) [17]: 0.022 µM | Selectivity (IC50 relative to PKC βI = 1) [17]: 2.8 fold | IC50, PKC kinase assay (33P, peptide substrate) [18]: 13.2 µM | Selectivity (IC50 relative to PKC βI = 1) [18]: 1650 fold

Ac-RRQG[Dap](10‑hydroxydecanoyl)FMYF-Cysteamide [Compound B]
IC50, PKC ζ kinase assay [3]: 0.85 µM | IC50 relative to the diacetylated parent peptide A [3]: ~100 fold

ARRGALR[Dap](Benzoyl(4-(pyrrol-1-yl)))A-Cysteamide (also: further groups not given here, also called peptide 6; Compound H) [compound 6 (primary lead from library IV)]
selectivity for PKCα versus this isoform [20]: 1210 fold | selectivity for PKCα versus this isoform [21]: 580 fold | IC50 as an inhibitor of histone III-S phosphorylation by PKCα [22]: 0.0317 µM | selectivity for PKCα versus this isoform [23]: 940 fold | selectivity for PKCα versus this isoform [24]: 600 fold | selectivity for PKCα versus this isoform [25]: 385 fold | selectivity for PKCα versus this isoform [3]: 640 fold | selectivity for PKCα versus this isoform [26]: 1310 fold | Ki [1]: 0.0008 µM | IC50, PKCα-catalysed phosphorylation of peptide substrate (33P assay) [2]: 0.0019 µM
